Test results from publication PMC3082181 (The Journal of Cell Biology, 2011).

Tests used:
Test in all cases: co-IP
Flag-Munc18c-Y219F = biological target: T1, Flag-Munc18c-Y219F (mouse, UniProt Q60770 1-592, Y219F)
T1 sequence: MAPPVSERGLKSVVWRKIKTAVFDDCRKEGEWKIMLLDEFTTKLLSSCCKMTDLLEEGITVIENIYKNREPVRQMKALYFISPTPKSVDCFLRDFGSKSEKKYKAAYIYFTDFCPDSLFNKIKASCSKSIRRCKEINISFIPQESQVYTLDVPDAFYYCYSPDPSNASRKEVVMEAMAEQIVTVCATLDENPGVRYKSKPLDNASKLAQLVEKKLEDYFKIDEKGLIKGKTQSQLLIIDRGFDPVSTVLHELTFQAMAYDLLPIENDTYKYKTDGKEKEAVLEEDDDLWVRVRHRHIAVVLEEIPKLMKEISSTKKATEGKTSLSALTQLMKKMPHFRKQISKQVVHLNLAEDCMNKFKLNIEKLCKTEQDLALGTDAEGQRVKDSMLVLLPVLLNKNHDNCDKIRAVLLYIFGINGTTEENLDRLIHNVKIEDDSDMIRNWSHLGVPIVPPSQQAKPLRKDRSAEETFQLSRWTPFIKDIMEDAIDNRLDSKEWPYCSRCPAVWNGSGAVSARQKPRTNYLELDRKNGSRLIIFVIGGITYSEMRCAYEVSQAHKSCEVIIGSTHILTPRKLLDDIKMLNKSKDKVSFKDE

Flag-Munc18c-Y521F = biological target: T2, Flag-Munc18c-Y521F (mouse, UniProt Q60770 1-592, Y521F)
T2 sequence: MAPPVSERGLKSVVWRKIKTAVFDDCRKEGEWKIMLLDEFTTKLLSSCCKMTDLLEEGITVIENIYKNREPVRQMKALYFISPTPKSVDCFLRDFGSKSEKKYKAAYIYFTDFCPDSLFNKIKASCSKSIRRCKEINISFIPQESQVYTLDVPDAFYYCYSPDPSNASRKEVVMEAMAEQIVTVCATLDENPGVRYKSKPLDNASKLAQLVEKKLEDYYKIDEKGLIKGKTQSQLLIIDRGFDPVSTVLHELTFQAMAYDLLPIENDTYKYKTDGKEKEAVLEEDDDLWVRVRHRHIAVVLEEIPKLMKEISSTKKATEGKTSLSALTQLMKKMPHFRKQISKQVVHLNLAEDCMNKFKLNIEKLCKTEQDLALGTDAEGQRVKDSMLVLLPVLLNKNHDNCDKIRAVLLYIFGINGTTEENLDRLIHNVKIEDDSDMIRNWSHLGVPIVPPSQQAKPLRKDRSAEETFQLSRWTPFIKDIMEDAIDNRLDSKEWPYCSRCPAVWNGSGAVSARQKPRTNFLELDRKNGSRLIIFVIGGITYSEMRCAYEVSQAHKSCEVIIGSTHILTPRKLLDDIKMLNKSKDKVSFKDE

Munc18c = biological target: T3, Munc18c (mouse (endogenous in 3T3-L1 adipocytes …, UniProt Q60770 1-592))
T3 sequence: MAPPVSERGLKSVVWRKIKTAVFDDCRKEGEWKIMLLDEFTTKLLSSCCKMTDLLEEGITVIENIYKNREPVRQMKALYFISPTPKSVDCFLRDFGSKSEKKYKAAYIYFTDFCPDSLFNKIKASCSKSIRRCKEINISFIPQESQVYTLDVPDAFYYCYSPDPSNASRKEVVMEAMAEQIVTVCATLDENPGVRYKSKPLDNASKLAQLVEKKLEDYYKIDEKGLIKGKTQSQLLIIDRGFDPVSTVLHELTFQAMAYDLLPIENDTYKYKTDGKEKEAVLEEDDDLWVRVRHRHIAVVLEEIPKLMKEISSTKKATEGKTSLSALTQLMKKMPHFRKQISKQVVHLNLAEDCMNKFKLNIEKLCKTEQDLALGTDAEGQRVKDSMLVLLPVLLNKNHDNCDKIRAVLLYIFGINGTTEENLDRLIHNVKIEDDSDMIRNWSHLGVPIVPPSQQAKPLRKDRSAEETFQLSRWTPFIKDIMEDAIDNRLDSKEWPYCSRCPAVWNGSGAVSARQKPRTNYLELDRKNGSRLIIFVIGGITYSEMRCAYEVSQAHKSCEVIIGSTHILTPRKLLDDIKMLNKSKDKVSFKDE

B1: full-length syntaxin 4 (natural protein)
chain: MRDRTHELRQGDNISDDEDEVRVALVVHSGAARLSSPDDEFFQKVQTIRQTMAKLESKVRELEKQQVTILATPLPEESMKQGLQNLREEIKQLGREVRAQLKAIEPQKEEADENYNSVNTRMKKTQHGVLSQQFVELINKCNSMQSEYREKNVERIRRQLKITNAGMVSDEELEQMLDSGQSEVFVSNILKDTQVTRQALNEISARHSEIQQLERSIRELHEIFTFLATEVEMQGEMINRIEKNILSSADYVERGQEHVKIALENQKKARKKKVMIAICVSVTVLILAVIIGITITVG
- ratio syntaxin 4/Flag-Munc18c, insulin-stimulated versus basal = 1 (Flag-Munc18c-Y219F): 1
- ratio syntaxin 4/Flag-Munc18c, insulin-stimulated versus basal = 1 (Flag-Munc18c-Y521F): 1.6

B2: insulin receptor (receptor)
chain 1: HLYPGEVCPGMDIRNNLTRLHELENCSVIEGHLQILLMFKTRPEDFRDLSFPKLIMITDYLLLFRVYGLESLKDLFPNLTVIRGSRLFFNYALVIFEMVHLKELGLYNLMNITRGSVRIEKNNELCYLATIDWSRILDSVEDNYIVLNKDDNEECGDVCPGTAKGKTNCPATVINGQFVERCWTHSHCQKVCPTICKSHGCTAEGLCCHKECLGNCSEPDDPTKCVACRNFYLDGQCVETCPPPYYHFQDWRCVNFSFCQDLHFKCRNSRKPGCHQYVIHNNKCIPECPSGYTMNSSNLMCTPCLGPCPKVCQILEGEKTIDSVTSAQELRGCTVINGSLIINIRGGNNLAAELEANLGLIEEISGFLKIRRSYALVSLSFFRKLHLIRGETLEIGNYSFYALDNQNLRQLWDWSKHNLTITQGKLFFHYNPKLCLSEIHKMEEVSGTKGRQERNDIALKTNGDQASCENELLKFSFIRTSFDKILLRWEPYWPPDFRDLLGFMLFYKEAPYQNVTEFDGQDACGSNSWTVVDIDPPQRSNDPKSQTPSHPGWLMRGLKPWTQYAIFVKTLVTFSDERRTYGAKSDIIYVQTDATNPSVPLDPISVSNSSSQIILKWKPPSDPNGNITHYLVYWERQAEDSELFELDYCLKGLKLPSRTWSPPFESDDSQKHNQSEYDDSASECCSCPKTDSQILKELEESSFRKTFEDYLHNVVFVPRPS
chain 2: SLEEVGNVTATTLTLPDFPNVSSTIVPTSQEEHRPFEKVVNKESLVISGLRHFTGYRIELQACNQDSPDERCSVAAYVSARTMPEAKADDIVGPVTHEIFENNVVHLMWQEPKEPNGLIVLYEVSYRRYGDEELHLCVSRKHFALERGCRLRGLSPGNYSVRVRATSLAGNGSWTEPTYFYVTDYLDVPSNIAKIIIGPLIFVFLFSVVIGSIYLFLRKRQPDGPMGPLYASSNPEYLSASDVFPSSVYVPDEWEVPREKITLLRELGQGSFGMVYEGNAKDIIKGEAETRVAVKTVNESASLRERIEFLNEASVMKGFTCHHVVRLLGVVSKGQPTLVVMELMAHGDLKSHLRSLRPDAENNPGRPPPTLQEMIQMTAEIADGMAYLNAKKFVHRDLAARNCMVAHDFTVKIGDFGMTRDIYETDYYRKGGKGLLPVRWMSPESLKDGVFTASSDMWSFGVVLWEITSLAEQPYQGLSNEQVLKFVMDGGYLDPPDNCPERLTDLMRMCWQFNPKMRPTFLEIVNLLKDDLHPSFPEVSFFYSEENKAPESEELEMEFEDMENVPLDRSSHCQREEAGGREGGSSLSIKRTYDEHIPYTHMNGGKKNGRVLTLPRSNPS
- fold change of coprecipitated IR, insulin versus unstimulated (Munc18c): ~2 fold
